Laboratory results: paper PMC7398979

Assays:
[1] = target: sulfur oxygenase reductase from Sulfurisphaera tokodaii (Sulfurisphaera tokodaii strain 7); test: SEC; gel filtration on HiLoad 16/600 Superdex 200 pg; standards thyroglobulin (669 k), pyruvate kinase (237 k), ovalbumin (44 k), RNaseA (14 k); peak at 539 kDa
[2] = target: sulfur oxygenase reductase from Sulfurisphaera tokodaii (Sulfurisphaera tokodaii strain 7); test: crystal structure; sitting drop at 20 °C, 1.2 M ammonium sulfate, 100 mM MES-NaOH pH 6.1, 4% dioxane; space group I23, 8 monomers per asymmetric unit; 1.73 Å
[3] = target: sulfur oxygenase reductase from Sulfurisphaera tokodaii (Sulfurisphaera tokodaii strain 7); test: cryo-EM structure; single particle analysis, 10 mg/mL in 20 mM Tris-HCl pH 8.0, 150 mM NaCl; sample partially purified (heat treatment, gel filtration); 200 kV Talos Arctica; octahedral symmetry imposed, 2.24 Å (C1: 2.73 Å)

stoichiometry N [1]: 15 to 16 | stoichiometry N [2]: 24 | stoichiometry N [3]: 24
Substance: sulfur oxygenase reductase from Sulfurisphaera tokodaii (enzyme)
